According to paper PMC2877798:

Columns and labels:
[1] = target: SNT, residues 1–215 of the HsdS (specificity) subunit of EcoR124I (UniProt P10485); assay: AUC; sedimentation velocity of SNT alone at 25 μM; 30,000 rpm, 10 °C, buffer A (10 mM Tris–HCl, pH 8.0, 100 mM NaCl, 1 mM Na2EDTA), 280 nm; c(s)/c(M) analysis with SEDFIT
[2] = target: SNT, residues 1–215 of the HsdS (specificity) subunit of EcoR124I (UniProt P10485); assay: AUC; sedimentation equilibrium of reconstituted M.EcoR124INT at 2.5 to 8.8 μM; 6500 rpm and 8500 rpm, 276 nm, global fit to a single ideal species model
[3] = target: SNT, residues 1–215 of the HsdS (specificity) subunit of EcoR124I (UniProt P10485); assay: AUC; sedimentation velocity of reconstituted M.EcoR124INT at 2.6 μM; 30,000 rpm, 10 °C, buffer A, 280 nm; c(s)/c(M) analysis with SEDFIT
[4] = target: M.EcoR124INT methyltransferase (hetero-tetramer of two SNT and two M subunits) (UniProt P10485)

Molecule: SNT, residues 1–215 of the HsdS (specificity) subunit of EcoR124I (from UniProt P10485 1-215) (domain or fragment)
- stoichiometry N [1]: 2

B1: M subunit (HsdM) of EcoR124I (natural protein)
chain: MKMTSIQQRAELHRQIWQIANDVRGSVDGWDFKQYVLGALFYRFISENFSSYIEAGDDSICYAKLDDSVITDDIKDDAIKTKGYFIYPSQLFCNVAAKANTNDRLNADLNSIFVAIESSAYGYPSEADIKGLFADFDTTSNRLGNTVKDKNARLAAVLKGVEGLKLGDFNEHQIDLFGDAYEFLISNYAANAGKSGGEFFTPQHVSKLIAQLAMHGQTHVNKIYDPAAGSGSLLLQAKKQFDNHIIEEGFFGQEINHTTYNLARMNMFLHNINYDKFDIKLGNTLTEPHFRDEKPFDAIVSNPPYSVKWIGSDDPTLINDERFAPAGVLAPKSKADFAFVLHALNYLSAKGRAAIVCFPGIFYRGGAEQKIRQYLVDNNYVETVISLAPNLFFGTTIAVNILVLSKHKTDTNVQFIDASELFKKETNNNILTDAHIEQIMQVFASKEDVAHLAKSVAFETVVANDYNLSVSSYVEAKDNREIIDIAELNAELKTTVSKIDQLRKDIDAIVAEIEGCEVQK
- stoichiometry N (M per SNT (2:2 hetero-tetramer)) [2]: 1
- stoichiometry N (M per SNT (2:2 hetero-tetramer)) [3]: 1

B2: ocr (“overcome classical restriction”) protein (natural protein)
chain: MAMSNMTYNNVFDHAYEMLKENIRYDDIRDTDDLHDAIHMAADNAVPHYYADIFSVMASEGIDLEFEDSGLMPDTKDVIRILQARIYEQLTIDLWEDAEDLLNEYLEEVEEYEEDEE
- inhibition of in vitro DNA methylation by M.EcoR124INT (EcoRI protection assay; 50 nM MTase, 50 nM ocr dimer incubated with the MTase before DNA, 37 °C, 10 mM MgCl2) [4]: 50%
